Sequences and labels used below:
B1: Compound 130 (peptide)
peptide: Ac-SEFCI[Trp(1-Me)]QDWGEHRCTEGEGGGK([γGlu-Gly-γGlu-C18 diacid])-NH2
modifications: disulfide 4-14
SMILES: CC[C@H](C)[C@@H]1NC(=O)[C@@H](NC(=O)[C@H](Cc2ccccc2)NC(=O)[C@H](CCC(=O)O)NC(=O)[C@H](CO)NC(C)=O)CSSC[C@@H](C(=O)N[C@H](C(=O)N[C@@H](CCC(=O)O)C(=O)NCC(=O)N[C@@H](CCC(=O)O)C(=O)NCC(=O)NCC(=O)NCC(=O)N[C@@H](CCCCNC(=O)CC[C@H](NC(=O)CNC(=O)CC[C@H](NC(=O)CCCCCCCCCCCCCCCCC(=O)O)C(=O)O)C(=O)O)C(N)=O)[C@@H](C)O)NC(=O)[C@H](CCCNC(=N)N)NC(=O)[C@H](Cc2c[nH]cn2)NC(=O)[C@H](CCC(=O)O)NC(=O)CNC(=O)[C@H](Cc2c[nH]c3ccccc23)NC(=O)[C@H](CC(=O)O)NC(=O)[C@H](CCC(N)=O)NC(=O)[C@H](Cc2cn(C)c3ccccc23)NC1=O
B2: Compound 126 (peptide)
peptide: Ac-SEFCI[Trp(1-Me)]QDWGEHRCTEGE-{AEEA-AEEA-X1-NH2}
modifications: disulfide 4-14
SMILES: CC[C@H](C)[C@@H]1NC(=O)[C@@H](NC(=O)[C@H](Cc2ccccc2)NC(=O)[C@H](CCC(=O)O)NC(=O)[C@H](CO)NC(C)=O)CSSC[C@@H](C(=O)N[C@H](C(=O)N[C@@H](CCC(=O)O)C(=O)NCC(=O)N[C@@H](CCC(=O)O)C(=O)NCCOCCOCC(=O)NCCOCCOCC(=O)N[C@@H](CCCCNC(=O)CC[C@H](NC(=O)CNC(=O)CC[C@H](NC(=O)CCCCCCCCCCCCCCCCC(=O)O)C(=O)O)C(=O)O)C(N)=O)[C@@H](C)O)NC(=O)[C@H](CCCNC(=N)N)NC(=O)[C@H](Cc2c[nH]cn2)NC(=O)[C@H](CCC(=O)O)NC(=O)CNC(=O)[C@H](Cc2c[nH]c3ccccc23)NC(=O)[C@H](CC(=O)O)NC(=O)[C@H](CCC(N)=O)NC(=O)[C@H](Cc2cn(C)c3ccccc23)NC1=O
B3: Compound 119 (peptide)
peptide: Ac-SEFCI[Trp(1-Me)]QDWGEHRC[Sar]EGAK([AEEA-γGlu-AEEA-Gly-γGlu-C18 diacid])-NH2
modifications: disulfide 4-14
SMILES: CC[C@H](C)[C@@H]1NC(=O)[C@@H](NC(=O)[C@H](Cc2ccccc2)NC(=O)[C@H](CCC(=O)O)NC(=O)[C@H](CO)NC(C)=O)CSSC[C@@H](C(=O)N(C)CC(=O)N[C@@H](CCC(=O)O)C(=O)NCC(=O)N[C@@H](C)C(=O)N[C@@H](CCCCNC(=O)COCCOCCNC(=O)CC[C@H](NC(=O)COCCOCCNC(=O)CNC(=O)CC[C@H](NC(=O)CCCCCCCCCCCCCCCCC(=O)O)C(=O)O)C(=O)O)C(N)=O)NC(=O)[C@H](CCCNC(=N)N)NC(=O)[C@H](Cc2c[nH]cn2)NC(=O)[C@H](CCC(=O)O)NC(=O)CNC(=O)[C@H](Cc2c[nH]c3ccccc23)NC(=O)[C@H](CC(=O)O)NC(=O)[C@H](CCC(N)=O)NC(=O)[C@H](Cc2cn(C)c3ccccc23)NC1=O
notes: also called Compound No 119
B4: Compound 120 (peptide)
peptide: Ac-SEFCI[Trp(1-Me)]QEWGEHRC[Sar]EGAK([AEEA-γGlu-AEEA-Gly-γGlu-C18 diacid])-NH2
modifications: disulfide 4-14
SMILES: CC[C@H](C)[C@@H]1NC(=O)[C@@H](NC(=O)[C@H](Cc2ccccc2)NC(=O)[C@H](CCC(=O)O)NC(=O)[C@H](CO)NC(C)=O)CSSC[C@@H](C(=O)N(C)CC(=O)N[C@@H](CCC(=O)O)C(=O)NCC(=O)N[C@@H](C)C(=O)N[C@@H](CCCCNC(=O)COCCOCCNC(=O)CC[C@H](NC(=O)COCCOCCNC(=O)CNC(=O)CC[C@H](NC(=O)CCCCCCCCCCCCCCCCC(=O)O)C(=O)O)C(=O)O)C(N)=O)NC(=O)[C@H](CCCNC(=N)N)NC(=O)[C@H](Cc2c[nH]cn2)NC(=O)[C@H](CCC(=O)O)NC(=O)CNC(=O)[C@H](Cc2c[nH]c3ccccc23)NC(=O)[C@H](CCC(=O)O)NC(=O)[C@H](CCC(N)=O)NC(=O)[C@H](Cc2cn(C)c3ccccc23)NC1=O
B5: Compound 122 (peptide)
peptide: Ac-SEYCI[Trp(1-Me)]QEWGEHRC[Sar]EGAK([AEEA-γGlu-AEEA-Gly-γGlu-C18 diacid])-NH2
modifications: disulfide 4-14
SMILES: CC[C@H](C)[C@@H]1NC(=O)[C@@H](NC(=O)[C@H](Cc2ccc(O)cc2)NC(=O)[C@H](CCC(=O)O)NC(=O)[C@H](CO)NC(C)=O)CSSC[C@@H](C(=O)N(C)CC(=O)N[C@@H](CCC(=O)O)C(=O)NCC(=O)N[C@@H](C)C(=O)N[C@@H](CCCCNC(=O)COCCOCCNC(=O)CC[C@H](NC(=O)COCCOCCNC(=O)CNC(=O)CC[C@H](NC(=O)CCCCCCCCCCCCCCCCC(=O)O)C(=O)O)C(=O)O)C(N)=O)NC(=O)[C@H](CCCNC(=N)N)NC(=O)[C@H](Cc2c[nH]cn2)NC(=O)[C@H](CCC(=O)O)NC(=O)CNC(=O)[C@H](Cc2c[nH]c3ccccc23)NC(=O)[C@H](CCC(=O)O)NC(=O)[C@H](CCC(N)=O)NC(=O)[C@H](Cc2cn(C)c3ccccc23)NC1=O
B6: Compound 121 (peptide)
peptide: Ac-SEYCI[Trp(1-Me)]QEW[Sar]EHRC[Sar]EK[γGlu]AK([AEEA-γGlu-AEEA-Gly-γGlu-C18 diacid])-NH2
modifications: disulfide 4-14
SMILES: CC[C@H](C)[C@@H]1NC(=O)[C@@H](NC(=O)[C@H](Cc2ccc(O)cc2)NC(=O)[C@H](CCC(=O)O)NC(=O)[C@H](CO)NC(C)=O)CSSC[C@@H](C(=O)N(C)CC(=O)N[C@@H](CCC(=O)O)C(=O)N[C@@H](CCCCN)C(=O)N[C@@H](CCC(=O)N[C@@H](C)C(=O)N[C@@H](CCCCNC(=O)COCCOCCNC(=O)CC[C@H](NC(=O)COCCOCCNC(=O)CNC(=O)CC[C@H](NC(=O)CCCCCCCCCCCCCCCCC(=O)O)C(=O)O)C(=O)O)C(N)=O)C(=O)O)NC(=O)[C@H](CCCNC(=N)N)NC(=O)[C@H](Cc2c[nH]cn2)NC(=O)[C@H](CCC(=O)O)NC(=O)CN(C)C(=O)[C@H](Cc2c[nH]c3ccccc23)NC(=O)[C@H](CCC(=O)O)NC(=O)[C@H](CCC(N)=O)NC(=O)[C@H](Cc2cn(C)c3ccccc23)NC1=O

Results on 8 molecules are retold here after patent US11965039B2, “Compstatin analogues and their medical uses” (priority 2018, dated 2024).

Starred links: 1 amine or outer side, 2 acyl side, 3 side chain; linkers in the order of their positions; H or OH if unused. Positions of bridges follow the written chain, without caps; N, C: chain ends. Non-standard residues stand in square brackets, D forms with d. Groups on a side chain read outwards from the residue. *: point of attachment. X1 = K(γGlu-G-γGlu-17-carboxy-heptadecanoyl), O=C(O)CCCCCCCCCCCCCCCCC(=O)N[C@@H](CCC(=O)NCC(=O)N[C@@H](CCC(=O)NCCCC[C@H](N[*:1])C(=O)[*:2])C(=O)O)C(=O)O; Trp(1-Me) = Cn1cc(C[C@H](N)C(=O)O)c2ccccc21; C18 diacid = O=C(O)CCCCCCCCCCCCCCCCC(=O)*; γGlu = O=C(O)[C@H](CCC(=O)[*:2])N[*:1]; AEEA = NCCOCCOCC(=O)O; Sar = CNCC(=O)O Some results are limits rather than exact numbers.

One assay deals with T1, Human C3 (Complement tech cat #A113c) (human, UniProt P01024 23-1663).
T1 construct: Purified protein immobilised by amine coupling in the SPR assay; in the haemolysis assay it is the C3 of diluted human serum; Native C3 consists of a beta and an alpha chain cut from one precursor; also called C3 protein
T1 sequence (P01024 23-1663 limits assumed): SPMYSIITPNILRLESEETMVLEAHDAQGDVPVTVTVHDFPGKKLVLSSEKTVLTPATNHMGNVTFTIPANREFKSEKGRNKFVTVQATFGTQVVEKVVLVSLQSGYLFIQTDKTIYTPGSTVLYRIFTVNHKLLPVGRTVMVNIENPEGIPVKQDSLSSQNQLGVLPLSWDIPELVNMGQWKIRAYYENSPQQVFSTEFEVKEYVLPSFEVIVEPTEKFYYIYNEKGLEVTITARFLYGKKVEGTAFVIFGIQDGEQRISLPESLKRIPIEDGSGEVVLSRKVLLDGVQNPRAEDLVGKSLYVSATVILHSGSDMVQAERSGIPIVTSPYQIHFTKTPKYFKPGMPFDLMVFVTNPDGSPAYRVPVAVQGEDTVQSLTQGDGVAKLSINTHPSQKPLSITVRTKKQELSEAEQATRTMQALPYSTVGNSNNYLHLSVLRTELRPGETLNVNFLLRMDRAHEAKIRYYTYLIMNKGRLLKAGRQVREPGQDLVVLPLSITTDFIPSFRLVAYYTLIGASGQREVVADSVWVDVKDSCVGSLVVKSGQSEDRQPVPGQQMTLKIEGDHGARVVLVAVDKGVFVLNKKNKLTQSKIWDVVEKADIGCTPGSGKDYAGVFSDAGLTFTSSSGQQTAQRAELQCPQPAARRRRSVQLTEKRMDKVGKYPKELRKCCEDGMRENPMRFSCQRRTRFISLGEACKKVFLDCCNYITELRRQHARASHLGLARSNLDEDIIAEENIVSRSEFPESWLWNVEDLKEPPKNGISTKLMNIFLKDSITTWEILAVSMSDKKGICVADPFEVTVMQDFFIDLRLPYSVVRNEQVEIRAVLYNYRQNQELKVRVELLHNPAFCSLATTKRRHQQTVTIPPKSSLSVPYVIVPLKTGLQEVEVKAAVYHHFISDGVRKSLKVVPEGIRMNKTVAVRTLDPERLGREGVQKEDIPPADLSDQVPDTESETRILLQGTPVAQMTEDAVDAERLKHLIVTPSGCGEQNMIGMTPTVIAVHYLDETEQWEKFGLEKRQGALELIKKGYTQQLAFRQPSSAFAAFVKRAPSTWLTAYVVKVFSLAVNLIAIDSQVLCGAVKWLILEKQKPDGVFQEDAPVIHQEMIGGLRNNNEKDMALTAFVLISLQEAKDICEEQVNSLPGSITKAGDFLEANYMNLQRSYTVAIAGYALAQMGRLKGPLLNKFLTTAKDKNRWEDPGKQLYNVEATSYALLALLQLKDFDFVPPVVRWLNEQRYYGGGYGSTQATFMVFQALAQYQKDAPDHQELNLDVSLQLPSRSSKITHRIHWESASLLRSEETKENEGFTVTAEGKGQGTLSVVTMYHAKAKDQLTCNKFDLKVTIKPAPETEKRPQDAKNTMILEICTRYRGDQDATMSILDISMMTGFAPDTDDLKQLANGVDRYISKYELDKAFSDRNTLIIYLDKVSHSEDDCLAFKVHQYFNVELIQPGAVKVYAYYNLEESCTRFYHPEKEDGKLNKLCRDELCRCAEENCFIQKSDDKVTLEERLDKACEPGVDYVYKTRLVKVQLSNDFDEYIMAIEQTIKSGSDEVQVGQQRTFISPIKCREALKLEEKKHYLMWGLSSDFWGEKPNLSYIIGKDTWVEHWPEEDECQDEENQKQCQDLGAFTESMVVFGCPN
The assay can be described thus: SPR (Biacore T200), human C3 immobilised, peptide injected, 1:1 fit. The procedure: Surface plasmon resonance (SPR) was used to characterize peptides with respect to their binding affinity (Kd) for C3. Human C3 (Complement tech cat #A113c) was immobilised on individual flow cells of CM5 sensor chips (GE Healthcare) using standard amine coupling to a density of approximately 3000 resonance units (RU) in a buffer consisting of 10 mM phosphate pH 7.4, 150 mM NaCl, 0.05% Tween20.
For interaction experiments a multi-cycle experiment approach was used and performed using a BiacoreT200™ instrument (GE Healthcare) at 25° C. Peptides were injected in increasing concentration series (6-8 different concentrations) for 60-120 sat a flow rate of 30 µL/min in a buffer consisting of 10 mM Tris buffer at pH 7.4, with 150 mM NaCl and 0.05% Tween20. This was followed by a dissociation period for up to 10 min. The C3 surface was regenerated between runs by a 45 s injection of 3 M MgCl_2.
The term Kd denotes the concentration at which binding is half-saturated. With B1, the Kd turned out to be 4.4 nM.
The same measure, in the same setting: the result for Ac-SEFCI[Trp(1-Me)]QDWGEHRC[Sar]EGE-{AEEA-AEEA-K(γGlu-Gly-γGlu-15-carboxy-pentadecanoyl)-NH2} (disulfide 4-14) [Compound 127] reads 8.5 nM.
Still for that read-out and setting: with Ac-SEFCI[Trp(1-Me)]QDWGEHRC[Sar]EGE-{AEEA-AEEA-K(γGlu-Gly-γGlu-19-carboxy-nonadecanoyl)-NH2} (disulfide 4-14, also called comp 128) [Compound 128] the figure was 6.5 nM; with B2, 5.2 nM; with B3, 9.8 nM.
On the same count and under the same terms, with B4 the figure was 28 nM.
Consider B5, for which binding was put at a Kd of 63 nM. Compared with the last molecule, the Kd is about 2.2-fold higher.
The molecule B6 returned a Kd of 30 nM.

For the next assay, the target named is T1, Human C3 (Complement tech cat #A113c). The assay is described as follows: cell-based or functional assay.
As for B1, the “inhibition of hemolysis IC50” value is < 100 nM.
The same measure, in the same setting: the result for Ac-SEFCI[Trp(1-Me)]QDWGEHRC[Sar]EGE-{AEEA-AEEA-K(γGlu-Gly-γGlu-15-carboxy-pentadecanoyl)-NH2} (disulfide 4-14) [Compound 127] reads < 100 nM.
Take Ac-SEFCI[Trp(1-Me)]QDWGEHRC[Sar]EGE-{AEEA-AEEA-K(γGlu-Gly-γGlu-19-carboxy-nonadecanoyl)-NH2} (disulfide 4-14, also called comp 128) [Compound 128]: the “inhibition of hemolysis IC50” value is < 100 nM.
Same read-out and setting: with B2 the figure was < 100 nM; with B3, < 100 nM.
On the same count and under the same terms, with B4 the figure was < 250 nM.
On the same count and under the same terms, the result for B5 reads < 500 nM.
Consider B6, for which the “inhibition of hemolysis IC50” value is < 250 nM.
